Consider two molecules from publication PMC11931385, “Structural and functional analysis of cancer-associated missense variants in the retinoblastoma protein pocket domain” (The Journal of Biological Chemistry, 2025).

Assay in all cases: fluorescence polarisation; 37 °C, after the 25 °C reading ramped over 7 min to 37 °C and 2 min incubation; unlabeled Rb^P against 1.5 nM TMR-E2F1^TD or 7.5 nM TMR-E7^LxCxE; 25 mM Tris pH 8.0, 200 mM NaCl, 1 mM DTT, 0.1% Tween-20; apparent Kd
What all share (details): both partners purified

The target of one assay is T1, Rb^P S474I (human, UniProt P06400 380-788, S474I).
T1 construct: also called variant 11
T1 sequence (looked up): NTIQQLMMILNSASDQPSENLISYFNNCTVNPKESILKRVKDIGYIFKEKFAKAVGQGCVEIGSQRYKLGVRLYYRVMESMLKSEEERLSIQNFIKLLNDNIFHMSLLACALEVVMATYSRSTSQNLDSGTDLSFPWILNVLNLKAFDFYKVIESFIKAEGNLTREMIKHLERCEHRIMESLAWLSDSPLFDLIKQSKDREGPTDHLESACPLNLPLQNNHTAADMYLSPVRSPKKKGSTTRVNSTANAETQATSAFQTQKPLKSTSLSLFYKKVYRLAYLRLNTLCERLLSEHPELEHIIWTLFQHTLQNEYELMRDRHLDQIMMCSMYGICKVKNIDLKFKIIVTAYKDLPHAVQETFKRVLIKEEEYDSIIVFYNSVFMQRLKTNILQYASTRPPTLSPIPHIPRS

In the next assay the target is T2, Rb^P R611S (human, UniProt P06400 380-788, R611S).
T2 construct: also called variant 38
T2 sequence (looked up): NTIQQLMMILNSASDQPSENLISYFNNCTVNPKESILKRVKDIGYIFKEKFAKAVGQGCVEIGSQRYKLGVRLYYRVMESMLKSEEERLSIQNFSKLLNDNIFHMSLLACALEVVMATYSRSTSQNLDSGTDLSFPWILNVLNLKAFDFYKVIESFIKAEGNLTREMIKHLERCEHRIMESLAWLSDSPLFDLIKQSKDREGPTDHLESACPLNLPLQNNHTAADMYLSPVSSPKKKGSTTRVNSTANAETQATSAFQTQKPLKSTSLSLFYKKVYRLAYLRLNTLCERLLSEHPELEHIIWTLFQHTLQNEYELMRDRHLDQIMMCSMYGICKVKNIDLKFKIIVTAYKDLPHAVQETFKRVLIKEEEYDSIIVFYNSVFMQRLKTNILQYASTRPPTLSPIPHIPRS

Another assay has as its target T3, Rb^P M695I (human, UniProt P06400 380-788, M695I).
T3 construct: also called variant 61
T3 sequence (looked up): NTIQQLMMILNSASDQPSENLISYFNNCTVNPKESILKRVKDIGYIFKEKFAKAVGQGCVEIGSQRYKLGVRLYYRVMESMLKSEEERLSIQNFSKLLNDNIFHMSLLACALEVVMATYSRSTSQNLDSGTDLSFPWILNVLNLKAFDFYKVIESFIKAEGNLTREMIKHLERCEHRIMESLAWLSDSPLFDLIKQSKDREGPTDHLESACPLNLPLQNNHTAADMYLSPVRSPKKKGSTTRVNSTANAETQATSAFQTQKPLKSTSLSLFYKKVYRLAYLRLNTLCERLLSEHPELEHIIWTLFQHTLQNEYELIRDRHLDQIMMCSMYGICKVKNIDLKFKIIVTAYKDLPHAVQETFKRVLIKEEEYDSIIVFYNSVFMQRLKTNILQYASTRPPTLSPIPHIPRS

In a further assay the target is T4, Rb^P S751C (human, UniProt P06400 380-788, S751C).
T4 construct: also called variant 71
T4 sequence (looked up): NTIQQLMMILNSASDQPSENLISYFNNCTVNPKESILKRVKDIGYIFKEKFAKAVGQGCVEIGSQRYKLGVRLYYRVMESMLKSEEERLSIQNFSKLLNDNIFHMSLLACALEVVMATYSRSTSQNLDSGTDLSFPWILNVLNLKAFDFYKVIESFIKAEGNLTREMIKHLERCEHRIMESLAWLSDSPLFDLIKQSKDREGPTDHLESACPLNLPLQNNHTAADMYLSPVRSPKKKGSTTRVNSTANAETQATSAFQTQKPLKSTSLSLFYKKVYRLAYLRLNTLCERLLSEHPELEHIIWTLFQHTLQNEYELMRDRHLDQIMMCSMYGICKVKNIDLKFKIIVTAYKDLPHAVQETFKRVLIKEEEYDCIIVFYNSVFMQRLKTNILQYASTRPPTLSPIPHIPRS

The next assay deals with T5, Rb^P V754G (human, UniProt P06400 380-788, V754G).
T5 construct: also called variant 73
T5 sequence (looked up): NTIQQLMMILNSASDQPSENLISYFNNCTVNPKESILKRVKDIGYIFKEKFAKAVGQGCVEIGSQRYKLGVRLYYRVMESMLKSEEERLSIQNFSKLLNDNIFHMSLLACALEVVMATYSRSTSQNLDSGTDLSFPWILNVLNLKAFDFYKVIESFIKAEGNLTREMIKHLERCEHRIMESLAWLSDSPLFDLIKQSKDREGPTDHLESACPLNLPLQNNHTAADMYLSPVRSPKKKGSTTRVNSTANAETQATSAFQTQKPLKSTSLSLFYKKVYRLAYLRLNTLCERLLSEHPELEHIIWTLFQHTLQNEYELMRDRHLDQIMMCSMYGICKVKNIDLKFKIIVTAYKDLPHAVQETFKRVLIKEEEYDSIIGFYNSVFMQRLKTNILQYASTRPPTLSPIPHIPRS

No end group written: not given here. TMR = tetramethyl rhodamine dye

B1: TMR-E2F1^TD, peptide of the E2F1 transactivation domain (peptide)
peptide: {TMR}-GEGIRDLFDCDFGDLTPLD
notes: also called E2F^TD; source: synthetic peptide, bought: GenScript
As to B1, the Kd was determined as 775 nM with Rb^P S474I; 30 nM with Rb^P R611S; 165 nM in the assay with Rb^P M695I; 137 nM with Rb^P S751C; 34 nM with Rb^P V754G.

B2: TMR-E7^LxCxE, LxCxE peptide of the E7 oncoprotein from HPV (peptide)
peptide: DLYCYEQLN
modifications: also: TMR label, position not given here
notes: source: synthetic peptide, bought: GenScript
With B2, the Kd in the assay with Rb^P S474I amounted to 18 nM; in the assay with Rb^P R611S it was 15 nM; with Rb^P M695I, 93 nM; with Rb^P S751C, 98 nM; with Rb^P V754G, 15 nM.
